Among the data in publication doi:10.1101/2024.08.29.610253 (2024) are Kd values, retold here.

T1: liprin-α2_CC2N E380R (human, UniProt O75334 300-404, E380R)
T1 sequence: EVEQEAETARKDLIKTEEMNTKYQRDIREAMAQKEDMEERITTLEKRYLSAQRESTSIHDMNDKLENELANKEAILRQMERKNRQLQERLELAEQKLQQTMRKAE

T2: liprin-α2_CC2N A350S (human, UniProt O75334 300-404, A350S)
T2 sequence: T1 sequence with A51S, R81E

T3: liprin-α2_CC2 (human, UniProt O75334 259-542)
T3 chain: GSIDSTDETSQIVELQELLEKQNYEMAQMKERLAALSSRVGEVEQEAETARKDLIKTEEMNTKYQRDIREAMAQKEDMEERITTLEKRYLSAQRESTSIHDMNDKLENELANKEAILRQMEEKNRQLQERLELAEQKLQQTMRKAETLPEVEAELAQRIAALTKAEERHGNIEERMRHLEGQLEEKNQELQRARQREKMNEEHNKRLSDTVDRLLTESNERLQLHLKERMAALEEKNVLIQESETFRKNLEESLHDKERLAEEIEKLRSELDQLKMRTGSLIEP

B1: RIM1_C2B (domain or fragment)
chain: GPAQLVGRQTLATPAMGDIQIGMEDKKGQLEVEVIRARSLTQKPGSKSTPAPYVKVYLLENGACIAKKKTRIARKTLDPLYQQSLVFDESPQGKVLQVIVWGDYGRMDHKCFMGVAQILLEELDLSSMVIGWYKLFPPSSLVDPTLAPLTRRASQSSLESSSGPPCIRS
B2: liprin-α2_CC2N (domain or fragment)
chain: T1 sequence with R81E

Where a chain is given by its changes, count along the chain named. Where two headings read alike, the source gives them in different places.

Common to all, as to experiment: ITC
(In general: ITC needs no label: the signal is the heat of the interaction.)

Assay [1] has as its target T1, liprin-α2_CC2N E380R.
In assay [2] the target is T2, liprin-α2_CC2N A350S.
The target in assay [3] is liprin-α2_CC2N E379R.
Assay [4] concerns the target liprin-α2_CC2N R383A.
The target in assay [5] is T1, liprin-α2_CC2N E380R. The source holds these as a separate data set.
Assay [6] has as its target liprin-α2_CC2N E379R. This is another data set of the same source.
Assay [7] concerns the target liprin-α2_CC2N R383A. This is another data set of the same source.
The target in assay [8] is B2.
The target in assay [9] is T3, liprin-α2_CC2.
Assay [10] deals with RIM1_C2B R1236E.
Assay [11] concerns the target RIM1_C2B K1240E.
Assay [12] addresses RIM1_C2B L1245Q.
Assay [13] addresses RIM1_C2B R1236E. This is another data set of the same source.
The target of assay [14] is RIM1_C2B K1240E. The source holds these as a separate data set.
For assay [15], the target named is RIM1_C2B L1245Q. The source holds these as a separate data set.

Turning to B1, the dissociation constant Kd (commonly the free concentration of one partner at which half of the binding sites on the other are occupied at equilibrium, for simple one-to-one binding) in [1] turned out to be 8.2 µM; in assay [2], 5.7 µM; in assay [3], 23 µM; in [4] it was 24 µM; in assay [5], 8.2 µM; in assay [6], 23 µM. Also, the Kd in assay [7] amounted to 24 µM; in [8], 4 µM; in [9] it was 5 µM.
As to B2, the Kd was 27 µM in assay [10]; 25 µM in [11]; above 100 µM in assay [12]; 27 µM in assay [13]; 25 µM in [14]; above 100 µM in assay [15].
